First the molecules themselves.
B1: M3 mouse anti-huCB-1 antibody (antibody, V domains shown)
VH: QVQLQQSGPELVRPGVSVKISCKGSGYEFTDYALHWVKQSHAETLEWIGLITTYYGDTNYNQKFKGKATMTVDKSSSTAYMELARLTSEDSAIYYCARGGYYYGTDYRYFDVWGAGTTVTVSS
VL: DILLTQSPAILSVSPGERVSFSCRASQSIGTNIHWYQQRPNGSPRLLIKYASESISGIPSRFSGSGSGSDFTLSINSVESEDIADYYCQQSITWPLTFGAGTKLELK
B2: M2 mouse anti-huCB-1 antibody (antibody, V domains shown)
VH: EVQLQQSGPELVKPGTSVKISCKASGYTFTDYNMHWVKLGKSLEWIGYFYPDDGGSGYNQKFKGKATLTIDKSSSTAYMELHSLTSEDSAVYYCARGYGNSWGTYWGQGTLVTVSA
VL: EIVLTQSPTTMAASPGEKITITCSASSRISSNYLYWYQQKPGFSPKLLIYRTSNLASGVPARFSGSGSGTSYSLTIGTMEAEDVATYYCQQGSSIPYTFGGGTKLEIK
B3: M6 mouse anti-huCB-1 antibody (antibody, V domains shown)
VH: EVQLQQSGPELVKPGASVKISCKASGYTFTDYNLHWVKHGKSLEWIGYIYPYDGDTGYKQKFKGKATLTADKSSSTAYMELRSLTCEDSAVYYCARGYGNSWGAYWGQGTLVTVSA
VL: B2 VL with S26T, R28S, Y35H
B4: M1 mouse anti-huCB-1 antibody (antibody, V domains shown)
VH: QVQLQQSGAELVRPGVSVKISCKGSGYTFTDHALHWVKQSQARSLEWIGIISTYYGDATYNQKFKGKATMTVDKSSSTAYMELARLTSEDSAFYYCARGGLYYGTNYRAMDYWGQGTSVTVSS
VL: DIVMTQSQKFMSTSVGDRVSVTCKASQNVGSNVAWYQQKPGQSPKALIYSASYRYSGVPDRFTGSGSGTDFTLTISNVQSEDLAEYFCQQYNNYPFTFGSGTKLEIK
B5: M4 mouse anti-huCB-1 antibody (antibody, V domains shown)
VH: QVQLQQSGAELVRPGSSVKISCKASGYEFNYYWMNWVKQRPGQGLEWIGQIYPGDGDINYNGKFKGKATLTSDKSSSTVYMQLSSLTSEDSAVYFCSRSKGNPFAYWGQGTLVTVSA
VL: DIQMTQTTSSLSASLGDSVTISCRASQGIRNYLNWYQQKPDGTVKLLIYYTSRLHSGVPPRFSGSGSGTDYSLTISNLEQEDLATYFCQQGNTLPYTFGGGTKLEIK
B6: M7-H8 humanized anti-CB1 antibody (antibody, human IgG1, kappa, L234A L235A, V domains shown)
VH: QVQLVQSGAEVKKPGASVKLSCKASSYTFTRYWMNWVRQAPGQGLEWIGMIDPYDSETHYNQKFQGRATLTVDTSTSTAYMELSSLRSEDTAVYFCARSQPRYYAMDYWGQGTTVTVSS
VL: DIQMTQSPSSLSASLGDRVTLTCRASQEISGFLSWLQLKPGKTIKRLIYAASSLDSGVPSRFSGSWSGTDYTLTISSLQPEDFADYYCLQYSSYPYTFGGGTKLEIKR
B7: M7-H14 humanized anti-CB1 antibody (antibody, human IgG1, kappa, L234A L235A, V domains shown)
VH: B6 VH with L20V, I48M, A68V, L70M, V72R, A79V, F95Y
VL: B6 VL with L15V, T43A
B8: M7-H9 humanized anti-CB1 antibody (antibody, human IgG1, kappa, L234A L235A, V domains shown)
VH: B6 VH with L20V, I48M, A68V, L70M, V72R, A79V, F95Y
VL: B6 VL
B9: M7-H15 humanized anti-CB1 antibody (antibody, human IgG1, kappa, L234A L235A, V domains shown)
VH: QVQLVQSGAEVKKPGASVKVSCKASSYTFTRYWMNWVKQRPGEGLEWMGMIDPYDSETHYNQKFQGKVTMTVDKSSSTVYMELSSLRSEDTAVYFCARSQPRYYAMDYWGQGTTVTVSS
VL: B6 VL with L15V, T43A
B10: M7-H11 humanized anti-CB1 antibody (antibody, human IgG1, kappa, L234A L235A, V domains shown)
VH: B6 VH with L20V, I48M, M50I, H59S, N61A, A68V, L70M, V72R, A79V, F95Y
VL: B6 VL
B11: M7-H12 humanized anti-CB1 antibody (antibody, human IgG1, kappa, L234A L235A)
heavy: not shown
light: DIQMTQSPSSLSASVGDRVTLTCRASQEISGFLSWLQLKPGKAIKRLIYAASSLDSGVPSRFSGSWSGTDYTLTISSLQPEDFADYYCLQYSSYPYTFGGGTKLEIKRTVAAPSVFIFPPSDEQLKSGTASVVCLLNNFYPREAKVQWKVDNALQSGNSQESVTEQDSKDSTYSLSSTLTLSKADYEKHKVYACEVTHQGLSSPVTKSFNRGEC
B12: M7-H10 humanized anti-CB1 antibody (antibody, human IgG1, kappa, L234A L235A, V domains shown)
VH: B9 VH
VL: B6 VL
B13: M7-H13 humanized anti-CB1 antibody (antibody, human IgG1, kappa, L234A L235A, V domains shown)
VH: B6 VH
VL: B6 VL with L15V, T43A
B14: M7-H16 humanized anti-CB1 antibody (antibody, human IgG1, kappa, L234A L235A, V domains shown)
VH: B6 VH with L20V, I48M, M50I, H59S, N61A, A68V, L70M, V72R, A79V, F95Y
VL: B6 VL with L15V, T43A

Positions count from the first letter of the chain named.

One experiment deals with T1, human cannabinoid receptor type 1 (CB1) (human, UniProt P21554 1-472).
T1 construct: DiscoverX cAMP Hunter CHO-K1 CNR1 Gi cells for cAMP and pERK assays; also called huCB1; huCB-1
T1 sequence (P21554 whole entry): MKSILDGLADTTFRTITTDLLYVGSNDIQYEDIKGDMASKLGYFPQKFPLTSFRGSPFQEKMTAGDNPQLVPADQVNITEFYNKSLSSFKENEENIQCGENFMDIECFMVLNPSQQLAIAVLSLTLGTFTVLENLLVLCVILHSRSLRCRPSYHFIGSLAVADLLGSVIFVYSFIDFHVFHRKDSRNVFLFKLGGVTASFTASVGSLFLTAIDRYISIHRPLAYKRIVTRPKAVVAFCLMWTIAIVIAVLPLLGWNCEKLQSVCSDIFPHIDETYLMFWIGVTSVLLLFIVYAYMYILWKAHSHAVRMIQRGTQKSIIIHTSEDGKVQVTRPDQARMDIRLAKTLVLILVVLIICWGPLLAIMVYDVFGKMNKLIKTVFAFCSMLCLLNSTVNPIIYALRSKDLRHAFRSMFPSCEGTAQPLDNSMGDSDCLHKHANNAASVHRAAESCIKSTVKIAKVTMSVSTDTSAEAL
Briefly: FACS, titration on CB1 over-expressing CHO cells. Here is the method: (§1) Antibody binding was tested in a fluorescence activated cell sorting (FACS)-based assay for the ability of the mouse anti-CB1 antibodies to bind parental CHO cells, human CB-1 overexpressing CHO cells and mouse CB-1 overexpressing CHO cells to obtain binding curves and EC50 values. The three cell lines were harvested, washed and dispensed at 1×10⁵ cells per well of a v-bottomed 96-well polycarbonate FACS plates (Corning, Corning, N.Y., Cat. No. 3357) in 50 μl of FACS buffer (1×PBS/2 mM EDTA and 1% FBS (ThermoFisher Scientific, Anaheim, Calif.; Cat. No. 10438-026). Serial dilutions of the antibodies were prepared at 2× concentrations starting at 200 nM and serially diluted 3-fold. The titrated antibodies were added to the plates containing the three different cell lines (parental, human and mouse CB-1 CHO cells) and incubated at 4° C. for 1 hour. The plates were washed 3× with FACS buffer. […] None of the eight functional antibodies tested were mouse cross reactive (FIG. 3).
Broadly, the EC50 is the concentration that produces a half-maximal response. Read a low EC50 as an effect from little substance. On to B1, for which the EC50 was 61.6 nM.

In turn, B2 registered an EC50 of 34.7 nM.

In turn, B3 returned an EC50 of 43.5 nM.

In turn, B4 returned an EC50 of 15.7 nM.

Take B5: it took 19.2 nM to reach a half-maximal effect (EC50).

The next experiment deals with T2, mouse CB-1 (mouse, UniProt P47746 1-473).
T2 construct: whole, on cells; also called moCB1; moCB1-CHO cells
T2 sequence (P47746 whole entry): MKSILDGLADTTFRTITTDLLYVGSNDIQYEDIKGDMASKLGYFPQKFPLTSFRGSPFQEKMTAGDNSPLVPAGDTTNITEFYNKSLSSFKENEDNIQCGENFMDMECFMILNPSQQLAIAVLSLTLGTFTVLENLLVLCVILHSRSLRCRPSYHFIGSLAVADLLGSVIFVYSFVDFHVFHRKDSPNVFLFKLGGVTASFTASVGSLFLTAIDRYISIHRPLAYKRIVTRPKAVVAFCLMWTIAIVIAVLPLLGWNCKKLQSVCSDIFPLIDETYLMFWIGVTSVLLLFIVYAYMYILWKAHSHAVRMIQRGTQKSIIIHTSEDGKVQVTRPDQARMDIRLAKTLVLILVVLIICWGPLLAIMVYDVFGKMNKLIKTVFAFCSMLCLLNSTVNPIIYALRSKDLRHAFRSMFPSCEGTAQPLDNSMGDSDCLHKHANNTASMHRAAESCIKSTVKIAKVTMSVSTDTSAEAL
Kind of experiment: flow cytometry on CHO-Mouse CB1 cells, 3-fold antibody titration from 200 nM. On the procedure: as §1
For B1, the binding result is recorded as “no binding (tested: 200 nM)”.

Regarding B4, the binding result is listed as “no binding (tested: 200 nM)”.

With B5, the binding result was “no binding (tested: 200 nM)”.

A further experiment deals with T1, human cannabinoid receptor type 1 (CB1). Briefly: flow cytometry, single point at 30 ug/mL antibody, signal on CHO-huCB-1 cells relative to CHO parental cells. (In flow cytometry, cells or beads pass a laser one at a time.)
B6: the binding result was “binds”.

For the molecule B7, the binding result is “binds”.

Regarding B8, the binding result is on record as “binds”.

As for B9, the binding result is on record as “binds”.

On to B10, for which the binding result was “binds”.

Turning to B11, the binding result was “binds”.

As to B12, the binding result is recorded as “binds”.

For B13, the binding result is recorded as “binds”.

In the case of B14, the binding result is on record as “binds”.

For a further experiment the target is unchanged. Kind of experiment: cell-based or functional assay.
Turning to B1, the “Mean P-ERK (% inhibition)” value turned out to be 59 % inhibition, the “Mean cAMP (% Amgen)” value was 71 % Amgen, the “P-ERK IC50 (nM) Data Set 1” value was 296 nM and the “P-ERK IC50 (nM) Data Set 2” value was determined as 534 nM. The “cAMP EC50 (nM) Data Set 1” value was found to be 290 nM, the “cAMP EC50 (nM) Data Set 2” value stood at 290 nM and the “cAMP EC50 (nM) Data Set 3” value is 330 nM.

Regarding B2, the “Mean P-ERK (% inhibition)” value is 59 % inhibition, the “Mean cAMP (% Amgen)” value amounted to 49 % Amgen, the “P-ERK IC50 (nM) Data Set 1” value is 219 nM and the “P-ERK IC50 (nM) Data Set 2” value is 211 nM. Moreover, the “cAMP EC50 (nM) Data Set 1” value amounted to 380 nM, the “cAMP EC50 (nM) Data Set 2” value was determined as 340 nM and the “cAMP EC50 (nM) Data Set 3” value was 270 nM.

In the case of B3, the “Mean P-ERK (% inhibition)” value was 42 % inhibition, the “Mean cAMP (% Amgen)” value came out at 21 % Amgen, the “P-ERK IC50 (nM) Data Set 1” value stood at 144 nM and the “P-ERK IC50 (nM) Data Set 2” value came out at 300 nM. In addition, the “cAMP EC50 (nM) Data Set 1” value came out at 310 nM, the “cAMP EC50 (nM) Data Set 2” value amounted to 290 nM and the “cAMP EC50 (nM) Data Set 3” value turned out to be 640 nM.

As for B4, the “Mean P-ERK (% inhibition)” value turned out to be 68 % inhibition, the “Mean cAMP (% Amgen)” value was determined as 75 % Amgen, the “P-ERK IC50 (nM) Data Set 1” value came to 163 nM and the “P-ERK IC50 (nM) Data Set 2” value came out at 165 nM. Further, the “cAMP EC50 (nM) Data Set 1” value is 43 nM, the “cAMP EC50 (nM) Data Set 2” value amounted to 170 nM and the “cAMP EC50 (nM) Data Set 3” value stood at 150 nM.

Take B5: the “Mean P-ERK (% inhibition)” value stood at 70 % inhibition, the “Mean cAMP (% Amgen)” value was found to be 41 % Amgen, the “P-ERK IC50 (nM) Data Set 1” value was found to be 97 nM and the “P-ERK IC50 (nM) Data Set 2” value was 890 nM. In addition, the “cAMP EC50 (nM) Data Set 1” value came out at 180 nM, the “cAMP EC50 (nM) Data Set 2” value was 320 nM and the “cAMP EC50 (nM) Data Set 3” value stood at 430 nM.

These data come from US20220396620A1 (Takeda / Millennium, published 2022).
